Reference: patent publication US20210128616A1

Target: CD19 (UniProt P15391)
Test: cell-based or functional assay

Chain of UniProt P15391 (P15391 20-291 limits assumed): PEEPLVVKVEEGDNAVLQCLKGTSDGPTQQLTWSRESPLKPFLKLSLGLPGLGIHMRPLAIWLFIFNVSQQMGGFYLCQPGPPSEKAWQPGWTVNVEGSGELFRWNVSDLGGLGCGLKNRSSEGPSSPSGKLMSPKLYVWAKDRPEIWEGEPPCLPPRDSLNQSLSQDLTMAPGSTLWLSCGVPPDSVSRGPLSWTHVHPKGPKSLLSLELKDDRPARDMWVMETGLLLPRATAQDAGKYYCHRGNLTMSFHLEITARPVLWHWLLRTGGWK

relative standard deviation among lots of a parameter indicative of TNFα production by CD4+ CAR+ T cells after stimulation with CD19: 37%
relative standard deviation among lots of a parameter indicative of TNFα production by CD8+ CAR+ T cells after stimulation with CD19: 51%
Substance: anti-CD19 chimeric antigen receptor (CAR) with an anti-CD19 scFv derived from murine antibody FMC63 (VL-linker-VH orientation), an immunoglobulin-derived spacer, a CD28-derived transmembrane domain, a 4-1BB costimulatory region and a CD3-zeta intracellular signaling domain
